Source: patent US6362319B1, “Glial cell line-derived neurotrophic factor” (Amgen Inc., priority 1991, dated 2002)

Columns and labels:
[1] = test system: TH+ dopamine neurons in mesencephalic cultures; experiment: Tyrosine hydroxylase (TH) immunoreactivity in mesencephalic cultures; assay type: cell-based, rat; conditions: added at day of plating, examined eight days later
Method: FIGS. 20A-B depicts the ability of GDNF to stimulate dopamine uptake and tyrosine hydroxylase (TH) immunostaining in dopaminergic neurons. Cultures were established as described in Example 1B. […] B. […] Primary antibody binding was visualized using a Vectastain ABC kit (Vector Labs, Burlingame, Calif.).
Culture conditions: Dissociated mesencephalic cell cultures were prepared as previously described (Friedman and Mytilineou 1987 Neurosci. Lett. 79:65-72), with minor modifications. Briefly, rostral mesencephalic tegmentum from brains of Sprague-Dawley rat embryos, at the 16th day of gestation, were dissected under the microscope in sterile conditions, collected in Ca^2+- and Mg^2+-free Dulbecco's phosphate buffered saline (Gibco, Gaithersburg, Md.) and dissociated mechanically by mild trituration. The cells were plated in 100 μl per well onto 16-mm diameter tissue culture wells (Falcon, Lincoln Park, N.J., 24-well plate) containing 400 μl medium to give a density of 2.5-3.5×10^5 cells per well. The culture wells had been previously exposed to 0.1 mg/ml solution of poly L-ornithine in 10 mM sodium borate, pH 8.4, for 3 hours at 37° C., washed 3 times in milli-Q H2O and once in Earle's balanced salt solution (Gibco). […]

[2] = test system: nigral dopaminergic nerve cells; experiment: Experimental Parkinsonism in monkeys treated with MPTP; assay type: in vivo, monkeys (Cebus apella); conditions: intraventricular minipump, 14 days, MPTP 0.6 mg/kg
Method: A stainless-steel cannula may be implanted into the right lateral ventricle and connected to a subcutaneously-implanted osmotic minipump (Alzet 2002). The minipump contains GDNF at various concentrations or its diluent as a negative control. The pump delivers 0.5 μl/h for 14 days. Two days after the cannula-pump implant, monkeys (Cebus apella) receive an injection of 0.6 mg/kg of MPTP into the right carotid artery. Six weeks after the initial implant, animals are perfused with saline and the brain rapidly removed. The brain is dissected on ice and punches of tissue are removed from the caudate nucleus and putamen. The substantia nigra is placed in fixative. The caudate-putamen tissue is analyzed by HPLC-EC for dopamine, the substantia nigra is processed for tyrosine hydroxylase (TH) immunoreactivity.
Degeneration of nigral dopaminergic nerve cells and their axonal projections to the caudate/putamen cause experimental Parkinsonism in this monkey model. There are several experimental indications that GDNF may prevent or reduce the severity of this neuronal degeneration. […] This indicates sparing by GDNF of nigral dopaminergic nerve cells from the toxic effects of MPTP. […] This indicates sparing by GDNF of the axonal projections of the nigral dopaminergic neurons from the toxic effects of MPTP. […]

- number of TH+ neurons over controls without GDNF [1]: tenfold higher
B1: glial cell line-derived neurotrophic factor (protein)
chain: SNMPEDYPDQFDDVMDFIQATIKRLKRSPDKQMAVLPRRERNRQAAAANPENSRGKGRRGQRGKNRGCVLTAIHLNVTDLGLGYETKEELIFRYCSGSCDAAETTYDKILKNLSRNRRLVTDKVGQACCRPIAF
notes: dopaminergic neurotrophic protein purified from serum-free conditioned medium of rat B49 glioblastoma cells; disulfide-bonded dimer
- loss of dopamine content in the caudate/putamen [2]: may also prevent the loss of dopamine content in the caudate/putamen
